The target in test [1] is hepatitis B virus surface antigen (HBsAg) (hepatitis B virus). Briefly: ELISA on commercial HBsAg plate, purified antibody, incubation and washes at pH 7.4, GAH-HRP, OD450/630. (ELISA stands for enzyme-linked immunosorbent assay.)
Test [2] has the same target. Briefly: ELISA on commercial HBsAg plate, ratio of EC50 at pH 6.0 to pH 7.4.
Test [3] has the same target. Briefly: ELISA on commercial HBsAg plate, pH 7.4, quantified transfection supernatant.
Test [4] has the same target. Briefly: ELISA on commercial HBsAg plate, wash/incubation at pH 6.0, quantified transfection supernatant.

B1: D3 DY (antibody, human IgG1, kappa, V domains shown)
VH: EVQLQESGPGLVKPSQTLSLTCAVSGSSITHGYHYNWIRQFPGNKLEWIGYIHYDGSVLYNPSLENRVTITRDTSKNQFFLKLSSVTAEDTAKYYCASGFDHWGQGTTLTVSS
VL: DVVMTQSPLSLPVTLGEPASISCRSSQSLVHSYGDNYLHWYLQKPGQSPKLLIYKVSNRFSGVPDRFSGSGSGTDFTLKISRVETEDLGVYYCSQNTHVPYTFGGGTKLEIKR
As usually defined, the EC50 (read off the curve) is the midpoint of the concentration-response curve. A lower EC50 (read off the curve) goes with a more potent agent. Molecule B1 showed an EC50 (read off the curve) in test [1] of 0.05 µg/mL.

B2: D4 DY (antibody, human IgG1, kappa, V domains shown)
VH: EVQLQESGPGLVKPSQTLSLTCAVSGSSITHGYHWNWIRQFPGNKLEWIGYIHYDGSVLYNPSLENRVTITRDTSKNQFFLKLSSVTAEDTAKYYCASGFDHWGQGTTLTVSS
VL: DVVMTQSPLSLPVTLGEPASISCRSSQSLVHSYGDNYLHWYLQKPGQSPKLLIYKVSNRFSGVPDRFSGSGSGTDFTLKISRVETEDLGVYYCSQNTHLPYTFGGGTKLEIKR
B2 came in with an EC50 (read off the curve) in test [1] of 0.06 µg/mL.

B3: D5 DY (antibody, human IgG1, kappa, V domains shown)
VH: EVQLQESGPGLVKPSQTLSLTCAVSGSSITHGYHWNWIRQFPGNKLEWIGYIHYDGSVLYNPSLENRVTITRDTSKNQFFLKLSSVTAEDTAKYYCASGFDHWGQGTTLTVSS
VL: DVVMTQSPLSLPVTLGEPASISCRSSQSLVHSYGDNYLHWYLQKPGQSPKLLIYKVSNRFSGVPDRFSGSGSGTDFTLKISRVETEDLGVYYCSQNTHVPYTFGGGTKLEIKR
With B3, the EC50 (read off the curve) in test [1] was 0.04 µg/mL.

B4: C32 (antibody, human IgG1, kappa, V domains shown)
VH: EVQLQESGPGLVKPSQTLSLTCAVSGSSITYRYHWNWIRQFPGNKLEWIGYINYDGSVHYNPSLENRVTITRDTSKNQFFLKLSSVTAEDTAKYYCASGFDHWGQGTTLTVSS
VL: DVVMTQSPLSLPVTLGEPASISCRSSQSLVHSYGDTYLHWYLQKPGQSPKLLIYKVSNRFSGVPDRFSGSGSGTDFTLKISRVETEDLGVYYCSQNTHLPYTFGGGTKLEIKR
In general, EC50 refers to the concentration that produces a half-maximal response. A low value points to an effect from little substance. As for B4, in test [2], the EC50(pH 6.0)/EC50(pH 7.4) was 1.69. Besides, the EC50 in test [3] stood at 1.33 µg/mL; in test [4], 2.25 µg/mL.

(Values after US20220251173A1.)
